Patent publication US20190029960A1, “Therapeutic Nanoparticles Having EGFR Ligands and Methods of Making and Using Same” (Pfizer Inc., priority 2016, published 2019)
*1 amine or outer side, *2 acyl side, *3 side chain or, on linkers, in order; H or OH if unused. Where a SMILES comes first, the peptide text is derived from it. Bridges are numbered along the chain shown (N, C = ends). Where no end group is shown, it is not given here. Side-chain parts run from the residue outwards. [ ]: non-standard residue; d: D form. The star is where a group is joined. Trp(5-OMe) = COc1ccc2[nH]cc(C[C@H](N)C(=O)O)c2c1; DBCO = C1#Cc2ccccc2N(*)Cc2ccccc21; Igl = N[C@H](C(=O)O)C1Cc2ccccc2C1; PEG5 = NCCOCCOCCOCCOCCOCCC(=O)O; Suc = O=C(CCC(=O)[*:2])[*:1]; Orn = NCCC[C@H](N)C(=O)O; Pra = C#CC[C@H](N)C(=O)O; Dap = NC[C@H](N)C(=O)O; Acm = CC(=O)NC*

Molecular target: T1, Fc tagged recombinant human EGFR (rhEGFR-Fc) (Homo sapiens, UniProt P00533)
T1 construct: purchased R&D Systems 344-ER-050
Type: binding
Settings: for Result: Table 14, relative affinity compared to KD of parent P2 (FIG. 16); for KD: Table 6, TGF fragments; for KD/P2 KD: Table 13, point mutations
Protocol: Surface plasmon resonance (SPR) binding studies were carried out on a Biacore T200 instrument (GE Healthcare). Approximately 10,000 RU of anti-Fc antibody (GE Healthcare, Cat #BR100839) was immobilized via amine coupling on each of flow cells 1 and 2 of a CM5 dextran-coated gold sensor chip (GE Healthcare, Cat #BR100530). […] The contact time and resulting amount of rhEGFR-Fc capture was varied based on the nature of the analyte, namely whether it was a peptide or nanoparticle.
Peptide binding assays were carried out in 10 mM PBS buffer supplemented with 0.05% surfactant P20 and 5% DMSO by volume, at 25° C. Peptides were injected over the rhEGFR-Fc surface for 60 s, followed by dissociation (buffer injection) for 60 s and regeneration with a 10 s pulse of 3M MgCl2. A fresh rhEGFR-Fc surface was generated for each concentration of each peptide tested. Peptide binding data was analyzed by fitting to a 1:1 Langmuir kinetic model to obtain the on-rate (ka), off-rate (kd) and/or equilibrium binding constant (KD) of the interaction.

Row | Result | Molecule | KD | other results
1 | No binding | H2N-GDP-Orn-TWEVWGREELQ-GG-Par-G-CONH2 (H-GDP[Orn]TWEVWGREELQGG[Pra]G-NH2; lactam 4-13; SMILES C#CC[C@H](NC(=O)CNC(=O)CNC(=O)[C@H](CCC(N)=O)NC(=O)[C@H](CC(C)C)NC(=O)[C@@H]1CCC(=O)NCCC[C@H](NC(=O)[C@@H]2CCCN2C(=O)[C@H](CC(=O)O)NC(=O)CN)C(=O)N[C@@H]([C@@H](C)O)C(=O)N[C@@H](Cc2c[nH]c3ccccc23)C(=O)N[C@@H](CCC(=O)O)C(=O)N[C@@H](C(C)C)C(=O)N[C@@H](Cc2c[nH]c3ccccc23)C(=O)NCC(=O)N[C@@H](CCCNC(=N)N)C(=O)N[C@@H](CCC(=O)O)C(=O)N1)C(=O)NCC(N)=O) [Peptide P2-61] |  | 
2 | No binding | H2N-GDP-Orn-TWEVWGREDLQ-GG-Par-G-CONH2 (H-GDP[Orn]TWEVWGREDLQGG[Pra]G-NH2; lactam 4-13; SMILES C#CC[C@H](NC(=O)CNC(=O)CNC(=O)[C@H](CCC(N)=O)NC(=O)[C@H](CC(C)C)NC(=O)[C@@H]1CC(=O)NCCC[C@H](NC(=O)[C@@H]2CCCN2C(=O)[C@H](CC(=O)O)NC(=O)CN)C(=O)N[C@@H]([C@@H](C)O)C(=O)N[C@@H](Cc2c[nH]c3ccccc23)C(=O)N[C@@H](CCC(=O)O)C(=O)N[C@@H](C(C)C)C(=O)N[C@@H](Cc2c[nH]c3ccccc23)C(=O)NCC(=O)N[C@@H](CCCNC(=N)N)C(=O)N[C@@H](CCC(=O)O)C(=O)N1)C(=O)NCC(N)=O) [Peptide P2-58] |  | 
3 | No binding | H2N-GDPDTWEVWGRE-Orn-LQ-GG-Par-G-CONH2 (H-GDPDTWEVWGRE[Orn]LQGG[Pra]G-NH2; lactam 4-13; SMILES C#CC[C@H](NC(=O)CNC(=O)CNC(=O)[C@H](CCC(N)=O)NC(=O)[C@H](CC(C)C)NC(=O)[C@@H]1CCCNC(=O)C[C@H](NC(=O)[C@@H]2CCCN2C(=O)[C@H](CC(=O)O)NC(=O)CN)C(=O)N[C@@H]([C@@H](C)O)C(=O)N[C@@H](Cc2c[nH]c3ccccc23)C(=O)N[C@@H](CCC(=O)O)C(=O)N[C@@H](C(C)C)C(=O)N[C@@H](Cc2c[nH]c3ccccc23)C(=O)NCC(=O)N[C@@H](CCCNC(=N)N)C(=O)N[C@@H](CCC(=O)O)C(=O)N1)C(=O)NCC(N)=O) [Peptide P2-65] |  | 
4 | No binding | H2N-GDPDTWEVWGREKLQ-GG-Par-G-CONH2 (H-GDPDTWEVWGREKLQGG[Pra]G-NH2; lactam 4-13; SMILES C#CC[C@H](NC(=O)CNC(=O)CNC(=O)[C@H](CCC(N)=O)NC(=O)[C@H](CC(C)C)NC(=O)[C@@H]1CCCCNC(=O)C[C@H](NC(=O)[C@@H]2CCCN2C(=O)[C@H](CC(=O)O)NC(=O)CN)C(=O)N[C@@H]([C@@H](C)O)C(=O)N[C@@H](Cc2c[nH]c3ccccc23)C(=O)N[C@@H](CCC(=O)O)C(=O)N[C@@H](C(C)C)C(=O)N[C@@H](Cc2c[nH]c3ccccc23)C(=O)NCC(=O)N[C@@H](CCCNC(=N)N)C(=O)N[C@@H](CCC(=O)O)C(=O)N1)C(=O)NCC(N)=O) [Peptide P2-64] |  | 

Continued, molecule first:

Row | Molecule | Result | KD | other results
5 | H2N-G-Par-GG-CPDSHTQFC(Acm)FHGTC-CONH2 (H-G[Pra]GGCPDSHTQFC(Acm)FHGTC-NH2; disulfide 5-18; SMILES C#CC[C@H](NC(=O)CN)C(=O)NCC(=O)NCC(=O)N[C@H]1CSSC[C@@H](C(N)=O)NC(=O)[C@H]([C@@H](C)O)NC(=O)CNC(=O)[C@H](Cc2c[nH]cn2)NC(=O)[C@H](Cc2ccccc2)NC(=O)[C@H](CSCNC(C)=O)NC(=O)[C@H](Cc2ccccc2)NC(=O)[C@H](CCC(N)=O)NC(=O)[C@H]([C@@H](C)O)NC(=O)[C@H](Cc2c[nH]cn2)NC(=O)[C@H](CO)NC(=O)[C@H](CC(=O)O)NC(=O)[C@@H]2CCCN2C1=O) [TGFf-3] |  | Not soluble | 
6 | H2N-DPCTWEVFGRECLQ-GG-Par-G-CONH2 [Peptide P2-40] |  |  | KD/P2 KD: NS at 100 μM
7 | C#CC[C@H](NC(=O)CN)C(=O)NCC(=O)NCC(=O)N[C@@H](CC(N)=O)C(=O)N[C@@H](CC(=O)O)C(=O)N[C@@H](CS)C(=O)N1CCC[C@H]1C(=O)N[C@@H](CC(=O)O)C(=O)N[C@@H](CO)C(=O)N[C@@H](Cc1c[nH]cn1)C(=O)N[C@H](C(=O)N[C@@H](CCC(N)=O)C(=O)N[C@@H](Cc1ccccc1)C(N)=O)[C@@H](C)O [TGFf-12] (H-G[Pra]GGNDCPDSHTQF-NH2) |  | No binding | 
8 | C#CC[C@H](NC(=O)CN)C(=O)NCC(=O)NCC(=O)N[C@@H](CSCNC(C)=O)C(=O)N[C@@H](Cc1ccccc1)C(=O)N[C@@H](Cc1c[nH]cn1)C(=O)NCC(=O)N[C@H](C(=O)N[C@@H](CS)C(=O)N[C@@H](CCCNC(=N)N)C(=O)N[C@@H](Cc1ccccc1)C(=O)N[C@H](C(N)=O)C(C)C)[C@@H](C)O [TGFf-10] (H-G[Pra]GGC(Acm)FHGTCRFV-NH2) |  | No binding | 
9 | CC(=O)N[C@@H](CC(=O)O)C(=O)N[C@@H](C)C(=O)N[C@H]1CSSC[C@@H](C(=O)N[C@@H](CC(C)C)C(=O)N[C@@H](CCC(N)=O)C(=O)NCC(=O)NCC(=O)N[C@@H](CCCCNC(=O)CCOCCOCCOCCOCCOCCNC(=O)CCC(=O)N2Cc3ccccc3C#Cc3ccccc32)C(N)=O)NC(=O)[C@H](CCC(=O)O)NC(=O)[C@H](CCCNC(=N)N)NC(=O)CNC(=O)[C@H](Cc2c[nH]c3ccccc23)NC(=O)[C@H](C(C)C)NC(=O)[C@H](CCC(=O)O)NC(=O)[C@H](Cc2c[nH]c3ccccc23)NC(=O)[C@H]([C@@H](C)O)NC1=O [Peptide P2-2] |  |  | binding of free peptide to EGFR by SPR, in words: improved affinity relative to the parent peptide
10 | C#CC[C@H](NC(=O)CN)C(=O)NCC(=O)NCC(=O)N[C@@H](C)C(=O)N[C@@H](CCCNC(=N)N)C(=O)N[C@@H](CS)C(=O)N[C@@H](Cc1c[nH]cn1)C(=O)N[C@@H](CCC(=O)O)C(=O)N[C@@H](Cc1c[nH]cn1)C(=O)N[C@@H](C)C(=O)N[C@@H](CC(=O)O)C(=O)N[C@@H](CC(C)C)C(=O)N[C@@H](CC(C)C)C(=O)N[C@@H](C)C(N)=O [TGFf-14] (H-G[Pra]GGARCHEHADLLA-NH2) |  | No binding | 
11 | H2N-GDP-Dap-TWEVWGREDLQ-GG-Par-G-CONH2 (H-GDP[Dap]TWEVWGREDLQGG[Pra]G-NH2; lactam 4-13) [Peptide P2-59] | No binding |  | 
12 | C#CC[C@H](NC(=O)CN)C(=O)NCC(=O)NCC(=O)N[C@@H](CO)C(=O)NCC(=O)N[C@@H](Cc1ccc(O)cc1)C(=O)N[C@H](C(=O)NCC(=O)N[C@@H](C)C(=O)N[C@@H](CCCNC(=N)N)C(=O)N[C@@H](CS)C(=O)N[C@@H](CCC(=O)O)C(=O)N[C@@H](Cc1c[nH]cn1)C(N)=O)C(C)C [TGFf-6] (H-G[Pra]GGSGYVGARCEH-NH2) |  | No binding | 
13 | C#CC[C@H](NC(=O)CN)C(=O)NCC(=O)NCC(=O)N[C@@H](CO)C(=O)N[C@@H](Cc1c[nH]cn1)C(=O)N[C@H](C(=O)N[C@@H](CCC(N)=O)C(=O)N[C@@H](Cc1ccccc1)C(=O)N[C@@H](CS)C(=O)N[C@@H](Cc1ccccc1)C(=O)N[C@@H](Cc1c[nH]cn1)C(=O)NCC(=O)N[C@H](C(N)=O)[C@@H](C)O)[C@@H](C)O [TGFf-11] (H-G[Pra]GGSHTQFCFHGT-NH2) |  | No binding | 
14 | CC(=O)N[C@@H](CC(=O)O)C(=O)N1CCC[C@H]1C(=O)N[C@@H]1C(=O)N[C@@H]([C@@H](C)O)C(=O)N[C@@H](Cc2c[nH]c3ccccc23)C(=O)N[C@@H](CCC(=O)O)C(=O)N[C@@H](C(C)C)C(=O)N[C@@H](Cc2c[nH]c3ccccc23)C(=O)NCC(=O)N[C@@H](CCCNC(=N)N)C(=O)N[C@@H](CCC(=O)O)C(=O)N[C@H](C(=O)N[C@@H](CC(C)C)C(=O)N[C@@H](CCC(N)=O)C(=O)NCC(=O)NCC(=O)N[C@@H](CCCCNC(=O)CCOCCOCCOCCOCCOCCNC(=O)CCC(=O)N2Cc3ccccc3C#Cc3ccccc32)C(N)=O)C(C)(C)SSC1(C)C [Peptide P2-55] | 1.18 |  | binding of free peptide to EGFR by SPR, in words: improved affinity relative to the parent peptide
15 | C#CC[C@H](NC(=O)CNC(=O)CNC(=O)[C@H](CCC(N)=O)NC(=O)[C@H](CC(C)C)NC(=O)[C@@H]1CSSC[C@H](NC(=O)[C@@H]2CCCN2C(=O)[C@@H](N)CC(=O)O)C(=O)N[C@@H]([C@@H](C)O)C(=O)N[C@@H](Cc2ccccc2)C(=O)N[C@@H](CCC(=O)O)C(=O)N[C@@H](C(C)C)C(=O)N[C@@H](Cc2c[nH]c3ccccc23)C(=O)NCC(=O)N[C@@H](CCCNC(=N)N)C(=O)N[C@@H](CCC(=O)O)C(=O)N1)C(=O)NCC(N)=O [Peptide P2-29] (H-DPCTFEVWGRECLQGG[Pra]G-NH2; disulfide 3-12) |  |  | KD/P2 KD: 9.24
16 | P2-8: P2 alanine scan analog, alanine at position 8 (DPCTWEVAGRECLQ; disulfide 3-12 (inferred); not fully specified (N-terminus, C-terminus)) [Peptide P2-8] |  |  | KD (μM) (Table 11, P2 Ala scan): nb; Relative Affinity (Table 11, relative to the KD of parent P2): nb
17 | H2N-GDPETWEVWGRE-Dap-LQ-GG-Par-G-CONH2 (H-GDPETWEVWGRE[Dap]LQGG[Pra]G-NH2; lactam 4-13) [Peptide P2-69] | No binding |  | 
18 | COc1ccc2[nH]cc(C[C@@H]3NC(=O)[C@H](C(C)C)NC(=O)[C@H](CCC(=O)O)NC(=O)[C@H](C4Cc5ccccc5C4)NC(=O)[C@H]([C@@H](C)O)NC(=O)[C@@H](NC(=O)[C@@H]4CCCN4C(=O)[C@H](CC(=O)O)NC(C)=O)CSSC[C@@H](C(=O)N[C@@H](CC(C)C)C(=O)N[C@@H](CCC(N)=O)C(=O)NCC(=O)NCC(=O)N[C@@H](CCCCNC(=O)CCOCCOCCOCCOCCOCCNC(=O)CCC(=O)N4Cc5ccccc5C#Cc5ccccc54)C(N)=O)NC(=O)[C@H](CCC(=O)O)NC(=O)[C@H](CCCNC(=N)N)NC(=O)CNC3=O)c2c1 [Peptide P2-102] (Ac-DPCT[Igl]EV[Trp(5-OMe)]GRECLQGGK([PEG5-Suc-DBCO])-NH2; disulfide 3-12) |  |  | binding of free peptide to EGFR by SPR, in words: improved affinity relative to the parent peptide
